CN103319600A (MILITARY MEDICINE INST OF NANJING MILITARY REGION, dated 2013)

Molecular target: T1, 阴性对照蛋白BSA (UniProt P02769 25-607)
T1 construct: Negative control protein
Assay: ELISA

T1 sequence (P02769 25-607 limits assumed): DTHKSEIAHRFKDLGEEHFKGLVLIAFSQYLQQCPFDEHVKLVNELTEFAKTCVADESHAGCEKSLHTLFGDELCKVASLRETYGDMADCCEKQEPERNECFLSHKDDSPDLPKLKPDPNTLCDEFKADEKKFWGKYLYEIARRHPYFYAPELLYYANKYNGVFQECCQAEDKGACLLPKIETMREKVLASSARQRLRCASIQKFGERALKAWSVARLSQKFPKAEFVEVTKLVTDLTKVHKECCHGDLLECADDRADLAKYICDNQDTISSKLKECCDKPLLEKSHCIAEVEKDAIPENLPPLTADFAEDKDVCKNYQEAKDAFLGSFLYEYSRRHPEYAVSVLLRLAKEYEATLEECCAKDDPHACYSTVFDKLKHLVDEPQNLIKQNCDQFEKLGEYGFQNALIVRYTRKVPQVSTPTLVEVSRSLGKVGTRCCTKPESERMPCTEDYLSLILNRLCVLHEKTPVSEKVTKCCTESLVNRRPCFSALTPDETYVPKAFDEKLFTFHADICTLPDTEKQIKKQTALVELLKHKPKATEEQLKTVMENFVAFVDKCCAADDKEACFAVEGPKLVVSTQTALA

B1: 人源抗TLR4抗体Fab (Fab, V domains shown)
VH: EVQLVESGGGLVKPGRSLRLSCAASGFTFSSYAMHWVRQAPGKGLEWVAVISYDGSNKYYADSVKGRFTISRDNSENTLYLQMNSLRAEDTAVYYCAAYSSSSWFDPWGQGTLVTVSP
VL: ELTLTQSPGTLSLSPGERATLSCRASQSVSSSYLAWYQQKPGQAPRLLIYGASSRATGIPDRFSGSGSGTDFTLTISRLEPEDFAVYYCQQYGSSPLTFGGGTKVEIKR
notes: also called 抗TLR4基因工程抗体Fab; 抗TLR4的Fab
binding result: no binding
